Data reported in PMC9477884 (Communications Biology, 2022).

T1: MazE6 (UniProt P9WJ87 1-82)
T1 sequence: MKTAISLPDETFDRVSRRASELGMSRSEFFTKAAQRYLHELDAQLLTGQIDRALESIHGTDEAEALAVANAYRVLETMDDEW


Legend:
[1] = target: the molecule itself; test: SEC-MALS; MazE6 in solution; observed mol. wt. 17 kDa
MazE6 = target: T1, MazE6; test: gel filtration; conditions: protein: recombinant; chain copies: 2; blunt

Binder	stoichiometry N [1]	binding result (MazE6)
MazE6 antitoxin (residue 1-82) (natural protein) MKTAISLPDETFDRVSRRASELGMSRSEFFTKAAQRYLHELDAQLLTGQIDRALESIHGTDEAEALAVANAYRVLETMDDEW	2	–
mazEF6 operator DNA (dsDNA) DNA 1: CCGGTTATACTATCTGTA DNA 2: TACAGATAGTATAACCGG	–	binds
